This is an account of results in patent US20210190796A1 (AB STUDIO, published 2021).

Assay [1] concerns the target T1, Aβ (1-42) peptide (UniProt P05067 672-713).
T1 construct: domain: Aβ (1-42) peptide; also called Aβ42
Nature of the assay: ELISA, Aβ(1-42) coated. For orientation: An ELISA detects its analyte on a solid surface through an enzyme-linked reagent.
Experimental: (§1) Briefly, an ELISA plate was coated with an Aβ (1-42) peptide at 1 μg/mL in a coating buffer (0.2M sodium carbonate-bicarbonate buffer, pH 9.4), 100 μL/well at 4° C. overnight. The Aβ peptide was removed and the plate was washed three times with 250 μL/well of a washing buffer (PBST). The plate was then blocked with 200 μL/well of a blocking buffer (1% BSA in PBST) for 1 hour at room temperature, and washed two times with 250 μL/well of the washing buffer. To each well of the plate was added 100 μL of the antibody sample (3× serial dilution in the range of 3 ng/mL to 20 μg/mL) and incubated at room temperature for 1 hour. […] The plate was then washed three times with 250 μL/well of the washing buffer. HRP substrate (Amplex Red and H₂O₂) was prepared freshly with a developing buffer (3.6 mM Na₂HPO₄, 1.4 mM NaH₂PO₄, at pH7.2), and 100 μL of the HRP substrate was added to each well and incubated for 1-60 minutes. Signals were subsequently detected using a plate reader (Excitation wavelength=530 nm, Emission wavelength=590 nm, and cutoff wavelength =570 nm).

Assay [2] has as its target T1, Aβ (1-42) peptide. As to the kind of experiment: ELISA, Aβ(1-42) coated at 1 µg/mL, antibody titrated 3 ng/mL to 20 µg/mL.
Experimental: as §1
For assay [3], the target named is T2, (EAR)3 peptide.
T2 construct: Synthetic substrate peptide coated on the ELISA plate
T2 peptide: EAREAREAR
As to the kind of experiment: ELISA, (EAR)3 peptide coated, antibody at 100 µg/mL.

Numbering of substitutions follows the chain as printed.

T1 sequence (P05067 672-713 limits assumed): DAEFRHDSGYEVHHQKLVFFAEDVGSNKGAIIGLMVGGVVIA

B1: hu3D6-D H1L1 (antibody, V domains shown)
VH: EVQLVESGGGLVQPGGSLRLSCAASGFTFSNYGMSWVRQAPDKRLEWVASIRSGGGRTYYSDNVKGRFTISRDNAKNTLYLQMNSLRAEDTALYYCVRYDHYSGSSDYWGQGTLVTVSS
VL: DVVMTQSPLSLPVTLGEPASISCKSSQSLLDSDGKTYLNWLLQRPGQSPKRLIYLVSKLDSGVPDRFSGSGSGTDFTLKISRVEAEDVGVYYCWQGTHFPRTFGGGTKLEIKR
notes: It was detected with goat anti-human IgG; also called hu3D6-D HIL1; humanized 3D6-D catabody
Consider B1, for which the binding result in assay [1] was “binds”.

B2: hu3D6-D H1L2 (antibody, V domains shown)
VH: B1 VH
VL: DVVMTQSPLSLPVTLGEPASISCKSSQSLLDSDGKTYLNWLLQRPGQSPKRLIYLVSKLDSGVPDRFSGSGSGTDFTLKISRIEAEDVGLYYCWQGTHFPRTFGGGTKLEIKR
notes: It was detected with goat anti-human IgG; also called hu3D6-D HIL2; hu3D6-D HISL2
Turning to B2, the binding result in assay [1] is reported as “binds”.

B3: bapineuzumab (antibody, V domains shown)
VH: B1 VH with V5L, D42G, R44G, T78S
VL: YVVMTQSPLSLPVTPGEPASISCKSSQSLLDSDGKTYLNWLLQKPGQSPQRLIYLVSKLDSGVPDRFSGSGSGTDFTLKISRVEAEDVGVYYCWQGTHFPRTFGQGTKVEIKR
notes: also called humanized 3D6-Y; hu3D6-Y
As to B3, the binding result in assay [2] is recorded as “binds”.

B4: 3D6-D (antibody, V domains shown)
VH: EVKLVESGGGLVKPGASLKLSCAASGFTFSNYGMSWVRQNSDKRLEWVASIRSGGGRTYYSDNVKGRFTISRENAKNTLYLQMSSLKSEDTALYYCVRYDHYSGSSDYWGQGTTVTVSS
VL: not shown
notes: It was detected with anti-human IgG; also called 3D6-D antibody; 3D6-D catabody
As for B4, in assay [3], the binding result is listed as “binds”.

B5: 3D6 (antibody, V domains shown)
VH: B4 VH
VL: not shown
notes: Non-catalytic anti-Aβ antibody, the parental murine antibody of bapineuzumab; An IgG1 isotype control and anti-human IgG detection were used; also called 3D6-Y; wild type 3D6 antibody
With B5, in assay [3], the binding result was “binds”.
